According to patent US20180111967A1 (PIONEER HI BRED INTERNATIONAL, published 2018):

Target: the molecule itself
Assay: NMR solution structure (self-association, homodimer)
Description: For NMR data collection PIP-72Aa (SEQ ID NO: 2) was used at 0.7 mM formulated in 20 mM MES, pH 6.5, 100 mM NaCl, and 5 mM CaCl₂. D₂O and DSS (4,4-dimethyl-4-silapentane-1-sulfonic acid) were added to 10% and 50 μM final concentrations, respectively. This was then loaded into a 4 mm NMR tube (Shigemi). Data collection was at 25° C. on a Bruker 800 MHz spectrometer equipped with a cryo-probe (Monleon, D. et al. 2002, J Struct Funct Genomics 2: 93).
A NOESY peak list containing expected intra-residue, sequential and α-helical medium range NOE peaks was initially generated and manually edited by visual inspection of the simultaneous NOESY (100 ms mixing time) and 13C-edited aromatic NOESY (100 ms mixing time) spectra. NOEs were assigned using matching tolerances of 0.030, 0.025 and 0.40 ppm for indirect 1H, direct 1H and heavy atom 13C/15N, respectively. Subsequent manual peak picking was used to identify remaining, primarily long-range NOEs. In addition, backbone dihedral angle constraints were derived from chemical shifts (Shen, Y. et al. 2009 J Biomol NMR 44:213) for residues located in well-defined secondary structure elements. The initial structure was refined in explicit solvent using standard methods (Linge, J. P. et al. 2003 Proteins-Structure Function and Bioinformatics 50:496).

B1: PIP-72Aa (Pseudomonas Insecticidal Protein-72Aa) polypeptide of SEQ ID NO: 2 (other)
chain: MGITVTNNSSNPIEVAINHWGSDGDTSFFSVGNGKQETWDRSDSRGFVLSLKKNGAQHPYYVQASSKIEVDNNAVKDQGRLIEPLS
modifications: uniformly 15N,13C isotope labeled
notes: Insecticidal protein from Pseudomonas chlororaphis strain SS143D5; For NMR it was expressed in E. coli with an N-terminal His tag, which was removed by proteolysis, so untagged PIP-72Aa was used; also called IPD072Aa
Q: Does B1 bind?
A: binds
